For orientation: Kd means the constant that tells how readily two partners part at equilibrium. High values mean a looser complex, low ones a tighter complex. The term koff denotes a measure of how fast the partners let go of each other. What is called kon is the rate constant with which the complex forms. A high value points to fast association.

Like-named read-outs stand apart in the source and are kept apart here. A value given as a limit tells only on which side of the number the result lay.

Here are results for three substances from patent publication US20240400652A1.

In assay [1] the target is Deglycosylated SARS-CoV-2 RBD (SARS-CoV-2) (UniProt P0DTC2).
For assay [2], the target named is SARS-CoV-2 Spike protein on pseudotyped virus (SARS-CoV-2) (UniProt P0DTC2). The experiment in a line: cell-based or functional assay.
For assay [3] the target is unchanged. The experiment in a line: cell-based or functional assay. The source holds these as a separate data set.

For the substance “S306 G56A (as printed in Table 5) (antibody)”, in assay [1], the dissociation constant Kd amounted to 0.7 nM, the koff came out at 0.00024 s⁻¹ and the association rate constant (kon) came to 340000 M⁻¹ s⁻¹.
Take sotrovimab (antibody): in assay [2], the EC50, neutralization of pseudotyped virus came to 24.1 ng/mL.
Turning to S309 LS (antibody), in assay [2], the IC50, neutralization of SARS-CoV-2pp, DBT-ACE2 cells was 3.9 nM; the maximum neutralization, VSV pseudotype, 293T ACE2 cells turned out to be 34%; the maximum neutralization, VSV pseudotype, A549-ACE2-TMPRSS2 clone 5 cells is 65%; the maximum neutralization, VSV pseudotype, A549-ACE2-TMPRSS2 clone 10 cells was 42%. Moreover, in assay [2], the maximum neutralization, VSV pseudotype, Huh7 cells came to 78%; the maximum neutralization, VSV pseudotype, MRC5-ACE2-TMPRSS2 cells was determined as 45%; the maximum neutralization, VSV pseudotype, Vero E6-TMPRSS2 cells worked out at 96%; the maximum neutralization, VSV pseudotype, Vero E6 cells is greater than 99%. In addition, the IC50, neutralization of SARS-CoV-2pp, DBT-ACE2 cells in assay [3] turned out to be 3.82 nM.
